EP4663654A1 (Hangzhou Sciwind Biosciences Co., Ltd., dated 2025)
Starred links: 1 amine or outer side, 2 acyl side, 3 side chain; linkers in the order of their positions; H or OH if unused. Non-standard residues stand in square brackets, D forms with d. Primed or numbered codes have the meaning given here. *: point of attachment. C20 diacid = O=C(O)CCCCCCCCCCCCCCCCCCC(=O)*; C18 diacid = O=C(O)CCCCCCCCCCCCCCCCC(=O)*; C16 diacid = O=C(O)CCCCCCCCCCCCCCC(=O)*; γGlu = O=C(O)[C@H](CCC(=O)[*:2])N[*:1]; Inp′ = not defined here; Trx′ = not defined here; AEEA = NCCOCCOCC(=O)O

T1: human amylin receptor (AMY3) on CHO-K1/Ga15/AMY3 amylin receptor/CRE-luc cells (human, UniProt P30988 25-474; O60896 24-148)
T1 sequence (looked up) 1: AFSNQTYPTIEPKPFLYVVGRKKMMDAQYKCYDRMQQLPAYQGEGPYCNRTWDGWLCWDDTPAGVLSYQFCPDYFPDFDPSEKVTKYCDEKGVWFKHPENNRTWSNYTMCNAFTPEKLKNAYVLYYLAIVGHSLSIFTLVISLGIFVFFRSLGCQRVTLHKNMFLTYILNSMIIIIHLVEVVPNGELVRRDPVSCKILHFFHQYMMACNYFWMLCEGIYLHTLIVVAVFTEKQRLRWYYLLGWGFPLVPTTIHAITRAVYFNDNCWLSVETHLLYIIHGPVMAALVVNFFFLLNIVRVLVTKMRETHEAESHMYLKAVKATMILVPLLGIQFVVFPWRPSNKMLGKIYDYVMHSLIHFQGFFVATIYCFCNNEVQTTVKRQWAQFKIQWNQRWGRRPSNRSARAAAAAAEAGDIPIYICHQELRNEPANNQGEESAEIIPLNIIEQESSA
T1 sequence (looked up) 2: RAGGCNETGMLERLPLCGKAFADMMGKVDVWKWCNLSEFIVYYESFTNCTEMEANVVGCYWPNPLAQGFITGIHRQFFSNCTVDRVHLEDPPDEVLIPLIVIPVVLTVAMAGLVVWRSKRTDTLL


Target: T1, human amylin receptor (AMY3) on …
Experiment: cell-based or functional assay

Binder | EC50/nM, CRE-luciferase reporter in amylin receptor/CRE-luc CHO cells [nM] | Relative activity (the EC50 ratio of Cagrilintide to the compound) [%]
{C18 diacid-γGlu}-ASQLSTAATQRLADFLRHFTDRDRDILPPTNVGSNTP-NH2 (SMILES CC[C@H](C)[C@H](NC(=O)[C@H](CC(=O)O)NC(=O)[C@H](CCCNC(=N)N)NC(=O)[C@H](CC(=O)O)NC(=O)[C@H](CCCNC(=N)N)NC(=O)[C@H](CC(=O)O)NC(=O)[C@@H](NC(=O)[C@H](Cc1ccccc1)NC(=O)[C@H](Cc1c[nH]cn1)NC(=O)[C@H](CCCNC(=N)N)NC(=O)[C@H](CC(C)C)NC(=O)[C@H](Cc1ccccc1)NC(=O)[C@H](CC(=O)O)NC(=O)[C@H](C)NC(=O)[C@H](CC(C)C)NC(=O)[C@H](CCCNC(=N)N)NC(=O)[C@H](CCC(N)=O)NC(=O)[C@@H](NC(=O)[C@H](C)NC(=O)[C@H](C)NC(=O)[C@@H](NC(=O)[C@H](CO)NC(=O)[C@H](CC(C)C)NC(=O)[C@H](CCC(N)=O)NC(=O)[C@H](CO)NC(=O)[C@H](C)NC(=O)CC[C@H](NC(=O)CCCCCCCCCCCCCCCCC(=O)O)C(=O)O)[C@@H](C)O)[C@@H](C)O)[C@@H](C)O)C(=O)N[C@@H](CC(C)C)C(=O)N1CCC[C@H]1C(=O)N1CCC[C@H]1C(=O)N[C@H](C(=O)N[C@@H](CC(N)=O)C(=O)N[C@H](C(=O)NCC(=O)N[C@@H](CO)C(=O)N[C@@H](CC(N)=O)C(=O)N[C@H](C(=O)N1CCC[C@H]1C(N)=O)[C@@H](C)O)C(C)C)[C@@H](C)O) [polypeptide derivative M22] | 0.016 | 198
{C20 diacid}-D[AEEA][AEEA]ASQLSTAATQRLADFLRHFTDRDRDILPPTNVGSNTP-NH2 (SMILES CC[C@H](C)[C@H](NC(=O)[C@H](CC(=O)O)NC(=O)[C@H](CCCNC(=N)N)NC(=O)[C@H](CC(=O)O)NC(=O)[C@H](CCCNC(=N)N)NC(=O)[C@H](CC(=O)O)NC(=O)[C@@H](NC(=O)[C@H](Cc1ccccc1)NC(=O)[C@H](Cc1c[nH]cn1)NC(=O)[C@H](CCCNC(=N)N)NC(=O)[C@H](CC(C)C)NC(=O)[C@H](Cc1ccccc1)NC(=O)[C@H](CC(=O)O)NC(=O)[C@H](C)NC(=O)[C@H](CC(C)C)NC(=O)[C@H](CCCNC(=N)N)NC(=O)[C@H](CCC(N)=O)NC(=O)[C@@H](NC(=O)[C@H](C)NC(=O)[C@H](C)NC(=O)[C@@H](NC(=O)[C@H](CO)NC(=O)[C@H](CC(C)C)NC(=O)[C@H](CCC(N)=O)NC(=O)[C@H](CO)NC(=O)[C@H](C)NC(=O)COCCOCCNC(=O)COCCOCCNC(=O)[C@H](CC(=O)O)NC(=O)CCCCCCCCCCCCCCCCCCC(=O)O)[C@@H](C)O)[C@@H](C)O)[C@@H](C)O)C(=O)N[C@@H](CC(C)C)C(=O)N1CCC[C@H]1C(=O)N1CCC[C@H]1C(=O)N[C@H](C(=O)N[C@@H](CC(N)=O)C(=O)N[C@H](C(=O)NCC(=O)N[C@@H](CO)C(=O)N[C@@H](CC(N)=O)C(=O)N[C@H](C(=O)N1CCC[C@H]1C(N)=O)[C@@H](C)O)C(C)C)[C@@H](C)O) [polypeptide derivative M19] | 0.036 | 80
{C16 diacid-γGlu}-ASQLSTAATQRLADFLRHFTDRDRDILPPTNVGSNTP-NH2 (SMILES CC[C@H](C)[C@H](NC(=O)[C@H](CC(=O)O)NC(=O)[C@H](CCCNC(=N)N)NC(=O)[C@H](CC(=O)O)NC(=O)[C@H](CCCNC(=N)N)NC(=O)[C@H](CC(=O)O)NC(=O)[C@@H](NC(=O)[C@H](Cc1ccccc1)NC(=O)[C@H](Cc1c[nH]cn1)NC(=O)[C@H](CCCNC(=N)N)NC(=O)[C@H](CC(C)C)NC(=O)[C@H](Cc1ccccc1)NC(=O)[C@H](CC(=O)O)NC(=O)[C@H](C)NC(=O)[C@H](CC(C)C)NC(=O)[C@H](CCCNC(=N)N)NC(=O)[C@H](CCC(N)=O)NC(=O)[C@@H](NC(=O)[C@H](C)NC(=O)[C@H](C)NC(=O)[C@@H](NC(=O)[C@H](CO)NC(=O)[C@H](CC(C)C)NC(=O)[C@H](CCC(N)=O)NC(=O)[C@H](CO)NC(=O)[C@H](C)NC(=O)CC[C@H](NC(=O)CCCCCCCCCCCCCCC(=O)O)C(=O)O)[C@@H](C)O)[C@@H](C)O)[C@@H](C)O)C(=O)N[C@@H](CC(C)C)C(=O)N1CCC[C@H]1C(=O)N1CCC[C@H]1C(=O)N[C@H](C(=O)N[C@@H](CC(N)=O)C(=O)N[C@H](C(=O)NCC(=O)N[C@@H](CO)C(=O)N[C@@H](CC(N)=O)C(=O)N[C@H](C(=O)N1CCC[C@H]1C(N)=O)[C@@H](C)O)C(C)C)[C@@H](C)O) [polypeptide derivative M23] | 0.017 | 182

Other lines, results leading:

EC50/nM, CRE-luciferase reporter in amylin receptor/CRE-luc CHO cells [nM] | Relative activity (the EC50 ratio of Cagrilintide to the compound) [%] | Binder
0.124 | 25 | {C20 diacid-γGlu-AEEA-AEEA-AEEA-AEEA-AEEA-AEEA}-ASQLSTAATQRLADFLRHFTDRDRDILPPTNVGSNTP-NH2 (SMILES CC[C@H](C)[C@H](NC(=O)[C@H](CC(=O)O)NC(=O)[C@H](CCCNC(=N)N)NC(=O)[C@H](CC(=O)O)NC(=O)[C@H](CCCNC(=N)N)NC(=O)[C@H](CC(=O)O)NC(=O)[C@@H](NC(=O)[C@H](Cc1ccccc1)NC(=O)[C@H](Cc1c[nH]cn1)NC(=O)[C@H](CCCNC(=N)N)NC(=O)[C@H](CC(C)C)NC(=O)[C@H](Cc1ccccc1)NC(=O)[C@H](CC(=O)O)NC(=O)[C@H](C)NC(=O)[C@H](CC(C)C)NC(=O)[C@H](CCCNC(=N)N)NC(=O)[C@H](CCC(N)=O)NC(=O)[C@@H](NC(=O)[C@H](C)NC(=O)[C@H](C)NC(=O)[C@@H](NC(=O)[C@H](CO)NC(=O)[C@H](CC(C)C)NC(=O)[C@H](CCC(N)=O)NC(=O)[C@H](CO)NC(=O)[C@H](C)NC(=O)COCCOCCNC(=O)COCCOCCNC(=O)COCCOCCNC(=O)COCCOCCNC(=O)COCCOCCNC(=O)COCCOCCNC(=O)CC[C@H](NC(=O)CCCCCCCCCCCCCCCCCCC(=O)O)C(=O)O)[C@@H](C)O)[C@@H](C)O)[C@@H](C)O)C(=O)N[C@@H](CC(C)C)C(=O)N1CCC[C@H]1C(=O)N1CCC[C@H]1C(=O)N[C@H](C(=O)N[C@@H](CC(N)=O)C(=O)N[C@H](C(=O)NCC(=O)N[C@@H](CO)C(=O)N[C@@H](CC(N)=O)C(=O)N[C@H](C(=O)N1CCC[C@H]1C(N)=O)[C@@H](C)O)C(C)C)[C@@H](C)O) [polypeptide derivative M25]
0.017 | 171 | {C20 diacid-Trx′-AEEA-AEEA}-ASQLSTAATQRLADFLRHFTDRDRDILPPTNVGSNTP-NH2 (reading uncertain) [polypeptide derivative M20]
0.066 | 47 | {C20 diacid-γGlu-AEEA-AEEA-AEEA-AEEA}-ASQLSTAATQRLADFLRHFTDRDRDILPPTNVGSNTP-NH2 (SMILES CC[C@H](C)[C@H](NC(=O)[C@H](CC(=O)O)NC(=O)[C@H](CCCNC(=N)N)NC(=O)[C@H](CC(=O)O)NC(=O)[C@H](CCCNC(=N)N)NC(=O)[C@H](CC(=O)O)NC(=O)[C@@H](NC(=O)[C@H](Cc1ccccc1)NC(=O)[C@H](Cc1c[nH]cn1)NC(=O)[C@H](CCCNC(=N)N)NC(=O)[C@H](CC(C)C)NC(=O)[C@H](Cc1ccccc1)NC(=O)[C@H](CC(=O)O)NC(=O)[C@H](C)NC(=O)[C@H](CC(C)C)NC(=O)[C@H](CCCNC(=N)N)NC(=O)[C@H](CCC(N)=O)NC(=O)[C@@H](NC(=O)[C@H](C)NC(=O)[C@H](C)NC(=O)[C@@H](NC(=O)[C@H](CO)NC(=O)[C@H](CC(C)C)NC(=O)[C@H](CCC(N)=O)NC(=O)[C@H](CO)NC(=O)[C@H](C)NC(=O)COCCOCCNC(=O)COCCOCCNC(=O)COCCOCCNC(=O)COCCOCCNC(=O)CC[C@H](NC(=O)CCCCCCCCCCCCCCCCCCC(=O)O)C(=O)O)[C@@H](C)O)[C@@H](C)O)[C@@H](C)O)C(=O)N[C@@H](CC(C)C)C(=O)N1CCC[C@H]1C(=O)N1CCC[C@H]1C(=O)N[C@H](C(=O)N[C@@H](CC(N)=O)C(=O)N[C@H](C(=O)NCC(=O)N[C@@H](CO)C(=O)N[C@@H](CC(N)=O)C(=O)N[C@H](C(=O)N1CCC[C@H]1C(N)=O)[C@@H](C)O)C(C)C)[C@@H](C)O) [polypeptide derivative M24]
0.023 | 126 | {C20 diacid-Inp′-AEEA-AEEA}-ASQLSTAATQRLADFLRHFTDRDRDILPPTNVGSNTP-NH2 [polypeptide derivative M21]
